# From patent US20190300590A1 (PROTAGONIST THERAPEUTICS, published 2019)
# *1 amine or outer side, *2 acyl side, *3 side chain or, on linkers, in order; H or OH if unused. Bridges are numbered along the chain shown (N, C = ends). Primed or numbered codes have the meaning given here. [ ]: non-standard residue; d: D form. Phe(4-(2-acetylaminoethoxy))″ = 4-(2-acetylaminoethoxy)phenylalanine, CC(=O)NCCOc1ccc(C[C@H](N[*:1])C(=O)[*:2])cc1; Phe(4-OMe)(3) = O-methyl-L-tyrosine (4-methoxy-L-phenylalanine), COc1ccc(C[C@H](N[*:1])C(=O)[*:2])cc1; Phe(4-OMe)(4) = O-methyl-L-tyrosine, COc1ccc(C[C@H](N[*:1])C(=O)[*:2])cc1; Phe(4-tBu) = CC(C)(C)c1ccc(C[C@H](N)C(=O)O)cc1; Bip = N[C@@H](Cc1ccc(-c2ccccc2)cc1)C(=O)O; 2Nal = N[C@@H](Cc1ccc2ccccc2c1)C(=O)O; AEF = NCCOc1ccc(C[C@H](N)C(=O)O)cc1; Gly(octyl) = CCCCCCCC[C@H](N)C(=O)O; αMeL = CC(C)C[C@](C)(N)C(=O)O; Pen = CC(C)(S)[C@H](N)C(=O)O; hLeu = CC(C)CC[C@H](N)C(=O)O; αMeK = C[C@](N)(CCCCN)C(=O)O; Abu = CC[C@H](N)C(=O)O; Dap = NC[C@H](N)C(=O)O; Aib = CC(C)(N)C(=O)O
# T1: IL-23R on DB cells (human, UniProt Q5VWK5 24-629)
# T1 sequence (looked up): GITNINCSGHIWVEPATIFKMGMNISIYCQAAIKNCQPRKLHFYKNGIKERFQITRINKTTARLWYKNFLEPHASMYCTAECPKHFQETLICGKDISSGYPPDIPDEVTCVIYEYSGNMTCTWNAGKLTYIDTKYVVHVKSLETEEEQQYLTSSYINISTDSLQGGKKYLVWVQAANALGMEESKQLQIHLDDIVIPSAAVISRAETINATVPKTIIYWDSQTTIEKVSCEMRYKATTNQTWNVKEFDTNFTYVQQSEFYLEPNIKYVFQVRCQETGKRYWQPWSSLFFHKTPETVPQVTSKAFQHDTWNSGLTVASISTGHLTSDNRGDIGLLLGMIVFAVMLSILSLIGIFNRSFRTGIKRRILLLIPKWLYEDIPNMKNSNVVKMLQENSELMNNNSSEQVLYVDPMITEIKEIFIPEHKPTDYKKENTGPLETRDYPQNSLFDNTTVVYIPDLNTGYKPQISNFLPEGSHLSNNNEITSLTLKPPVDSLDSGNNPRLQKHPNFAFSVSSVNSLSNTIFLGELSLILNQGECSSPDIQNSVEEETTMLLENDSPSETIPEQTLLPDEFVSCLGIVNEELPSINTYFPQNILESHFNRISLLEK
# T2: IL23R_huFC (human, UniProt Q5VWK5 24-353)
# T2 sequence (looked up): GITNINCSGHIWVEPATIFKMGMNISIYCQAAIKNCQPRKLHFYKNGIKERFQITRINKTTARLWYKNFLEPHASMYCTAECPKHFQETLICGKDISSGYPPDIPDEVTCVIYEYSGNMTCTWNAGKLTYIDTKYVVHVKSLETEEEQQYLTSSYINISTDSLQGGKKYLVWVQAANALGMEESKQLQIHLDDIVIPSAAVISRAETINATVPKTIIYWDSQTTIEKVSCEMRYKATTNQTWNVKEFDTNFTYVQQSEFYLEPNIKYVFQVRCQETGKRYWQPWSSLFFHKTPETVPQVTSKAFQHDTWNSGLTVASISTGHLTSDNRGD
# T3: IL-23R on human cells (IL-23R-expressing DB cells; human NK cells) (human, UniProt Q5VWK5 24-629)
# T3 sequence (looked up): T1 sequence (looked up)
# Columns and labels:
# IL-23R on DB cells = target: T1, IL-23R on DB cells; assay: cell-based or functional assay
# IL23R_huFC = target: T2, IL23R_huFC; assay: human ELISA vs IL-23
# [1] = target: T3, IL-23R on human cells …; assay: cell-based or functional assay
Binder,pStat3 HTRF IC50 (IL-23R on DB cells) [nM],IC50 (IL23R_huFC) [nM],pStat3 HTRF IC50 [1] [nM]
XNTWQXFXXKNN (Ac; Pen-Pen disulfide; Phe(4-OMe); 2-Nal; Aib; Lys(Ac); NH2) [Ac-[Pen]-NTWQ-[Pen]-[Phe(4-OMe)]-[2-Nal]-[Aib]-[Lys(Ac)]-NN-NH2],< 10,–,–
Ac-[Pen]TTWQ[Pen][AEF][2Nal][Aib]K(Ac)NQ-NH2 (disulfide 1-6 (inferred)) [Ac-[Pen]-TTWQ-[Pen]-[Phe[4-(2-aminoethoxy)]-[2-Nal]-[Aib]-[Lys(Ac)]-NQ-NH2],< 10,–,–
Ac-[Pen][Dap](Ac)TWQ[Pen][Phe(4-(2-acetylaminoethoxy))″][2Nal][αMeK](Ac)ENG-NH2 (disulfide 1-6 (inferred)) [Ac-[Pen]-Dap(Ac)TWQ-[Pen]-[Phe[4-(2-acetylaminoethoxy)]-[2-Nal]-[α-MeLys(Ac)]-ENG-NH2],< 10,–,–
XQTWQXFXXENN (Ac; Pen-Pen disulfide; Phe[4-(2-aminoethoxy)]; 2-Nal; Aib; NH2) [Ac-[Pen]-QTWQ-[Pen]-[Phe[4-(2-aminoethoxy)]-[2-Nal]-[Aib]-ENN-NH2],< 10,–,–
Ac-[Abu]QTWQ[Pen]YW[hLeu]ENG-NH2 (thioether 1-6) [Ac-Cyclo-[[Abu]-QTWQ-[Pen]]-YW-[hLeu]-ENG-NH2],–,> 1000,–
XNTWQXFXLENA (Ac; Pen-Pen disulfide; Phe[4-(2-aminoethoxy)]; 2-Nal; hLeu; NH2) [Ac-[Pen]-NTWQ-[Pen]-[Phe[4-(2-aminoethoxy)]-[2-Nal]-[hLeu]-ENA-NH2],< 10,–,–
XQTWQXFXXKNN (Ac; Pen-Pen disulfide; Phe[4-(2-aminoethoxy)]; 2-Nal; Aib; Lys(Ac); NH2) [Ac-[Pen]-QTWQ-[Pen]-[Phe[4-(2-aminoethoxy)]-[2-Nal]-Aib-[Lys(Ac)]-NN-NH2],< 10,–,–
Ac-[Abu]QTWQC[AEF]W[αMeK]K(Ac)[Dap]G-NH2 (thioether 1-6) [Ac-Cyclo-[[Abu]-QTWQC]-[Phe[4-(2-aminoethoxy)]]-W-[α-MeLys]-[Lys(Ac)]-[Dap]-G-NH2],–,> 1000,–
Ac-[Abu]QTWQC[AEF][2Nal][Aib]KNG-NH2 (thioether 1-6) [Ac-Cyclo-[[Abu]-QTWQC]-[Phe[4-(2-aminoethoxy)]]-[2-Nal]-[Aib]-KNG-NH2],–,< 10,< 10
XQTWQCFXXKNG (as bracketed in name; thioether cyclo) [Ac-Cyclo-[[Abu]-QTWQC]-[Phe[4-(2-aminoethoxy)]]-[2-Nal]-[α-Me-Orn]-[Lys(Ac)]-NG-NH2],–,< 10,< 10
Ac-[Abu]QTWQC[AEF][2Nal][Aib]K(Ac)NG-NH2 (thioether 1-6) [Ac-Cyclo-[[Abu]-QTWQC]-[Phe[4-(2-aminoethoxy)]]-[2-Nal]-[Aib]-[Lys(Ac)]-NG-NH2],–,< 10,< 10
XQTWQXFXXENN (Ac; Pen-Pen disulfide; Phe(4-OMe); 2-Nal; Aib; NH2) [Ac-[Pen]-QTWQ-[Pen]-[Phe(4-OMe)]-[2-Nal]-[Aib]-ENN-NH2],< 10,–,–
Ac-[Pen][Dap]TWQ[Pen][AEF][2Nal][αMeK]ENG-NH2 (disulfide 1-6 (inferred)) [Ac-[Pen]-[Dap]-TWQ-[Pen]-[Phe[4-(2-aminoethoxy)]-[2-Nal]-[α-MeLys]-ENG-NH2],< 10,–,–
XNTWQXFXXKNQ (Ac; Pen-Pen disulfide; Phe(4-OMe); 2-Nal; Aib; Lys(Ac); NH2) [Ac-[Pen]-NTWQ-[Pen]-[Phe(4-OMe)]-[2-Nal]-[Aib]-[Lys(Ac)]-NQ-NH2],< 10,–,–
Ac-[Abu]QTWQ[dC]YW[hLeu]ENG-NH2 (thioether 1-6) [Ac-Cyclo-[Abu]-QTWQ-(D)Cys]]-YW-[hLeu]-ENG-NH2],–,> 1000,–
Ac-[Abu]QTWQC[Phe(4-OMe)(3)][Phe(4-tBu)][αMeK]ENG-NH2 (thioether 1-6) [Ac-Cyclo-[[Abu]-QTWQC]-[Phe(4-OMe)]-[Phe(4-tBu)]-[α-MeLys]-ENG-NH2],–,> 1000,–
Ac-[Abu]QTWQC[AEF]W[αMeL]ENG-NH2 (thioether 1-6) [Ac-Cyclo-[[Abu]-QTWQC]-[Phe[4-(2-aminoethoxy)]]-W-[α-Me-Leu]-ENG-NH2],–,< 10,< 10
Ac-[Abu]QTWQC[Phe(4-OMe)(3)][Gly(octyl)][αMeK]K(Ac)NG-NH2 (thioether 1-6) [Ac-Cyclo-[[Abu]-QTWQC]-[Phe(4-OMe)]-[Octgly]-[α-MeLys]-[Lys(Ac)]-NG-NH2],–,~10000,–
Ac-[Abu]QT[Bip]QC[Phe(4-OMe)(4)][2Nal][αMeK]K(Ac)NG-NH2 (thioether 1-6) [Ac-Cyclo-[[Abu]-QT-[Bip]-QC]-[Phe(4-OMe)]-[2-Nal][α-MeLys]-[Lys(Ac)]-NG-NH2],–,~10000,–
XNTWQXFXXKNA (Ac; Pen-Pen disulfide; Phe[4-(2-aminoethoxy)]; 2-Nal; Aib; Lys(Ac); NH2) [Ac-[Pen]-NTWQ-[Pen]-[Phe[4-(2-aminoethoxy)]-[2-Nal]-[Aib]-[Lys(Ac)]-NA-NH2],< 10,–,–
Ac-R[Abu]QTWQC[AEF][2Nal][αMeK]ENN-NH2 (thioether 2-7) [Ac-Arg-Cyclo-[[Abu]-QTWQC]-[Phe[4-(2-aminoethoxy)]]-[2-Nal]-[α-MeLys]-ENN-NH2],–,< 10,< 10
XNTWQXFXXKNA (Ac; Pen-Pen disulfide; Phe(4-OMe); 2-Nal; Aib; Lys(Ac); βAla; NH2) [Ac-[Pen]-NTWQ-[Pen]-[Phe(4-OMe)]-[2-Nal]-[Aib]-[Lys(Ac)]-N-[βAla]-NH2],< 10,–,–
